For one substance, stoichiometry N (CaM molecule per hTRPV6 tetramer) results are on record in paper PMC6093632.

In this assay the target is full-length human TRPV6 (transient receptor potential vanilloid subfamily member 6) (human). Nature of the assay: cryo-EM structure.
Sequence of full-length human TRPV6 (transient receptor potential vanilloid subfamily member 6) (human) (Q9H1D0 whole entry): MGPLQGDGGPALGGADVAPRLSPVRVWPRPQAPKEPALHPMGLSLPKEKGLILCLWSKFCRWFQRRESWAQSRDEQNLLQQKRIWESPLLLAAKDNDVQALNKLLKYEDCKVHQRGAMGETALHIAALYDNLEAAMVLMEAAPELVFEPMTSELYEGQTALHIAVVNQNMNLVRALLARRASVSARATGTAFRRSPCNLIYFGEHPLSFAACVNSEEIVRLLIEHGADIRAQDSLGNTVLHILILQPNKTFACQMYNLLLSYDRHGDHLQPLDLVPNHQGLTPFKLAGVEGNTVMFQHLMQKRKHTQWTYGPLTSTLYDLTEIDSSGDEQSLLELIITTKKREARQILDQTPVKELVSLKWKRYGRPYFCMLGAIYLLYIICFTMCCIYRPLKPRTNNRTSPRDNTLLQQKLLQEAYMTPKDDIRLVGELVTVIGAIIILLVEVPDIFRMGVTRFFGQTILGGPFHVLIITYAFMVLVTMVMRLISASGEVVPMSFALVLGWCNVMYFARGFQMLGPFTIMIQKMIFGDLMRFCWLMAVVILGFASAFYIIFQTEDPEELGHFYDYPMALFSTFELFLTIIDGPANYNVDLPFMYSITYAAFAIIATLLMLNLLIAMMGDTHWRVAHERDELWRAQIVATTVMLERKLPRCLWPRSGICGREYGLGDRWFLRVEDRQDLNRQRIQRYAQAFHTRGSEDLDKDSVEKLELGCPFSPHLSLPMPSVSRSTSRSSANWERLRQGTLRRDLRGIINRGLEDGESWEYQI

For “human calmodulin (CaM), recombinant (from UniProt P0DP23 1-149) (natural protein)”, the stoichiometry N (CaM molecule per hTRPV6 tetramer) is 1.
